# Measurements published in publication PMC9324849, “A Light‐Activatable Photocaged Variant of the Ultra‐High Affinity ALFA‐Tag Nanobody” (Chembiochem, 2022).
# T1: sfGFP-ALFA-tag (3) (synthetic construct …)
# T1 construct: ALFA-tag, laboratory-designed amphiphilic peptide of 13 amino acids; sfGFP is the fluorescent marker read in MST and flow cytometry; also called protein 3; fusion construct sfGFP-ALFA-tag
# T1 chain: SRLEEELRRRLTE
# How the values were obtained:
# [1] = target: ALFA-Pb displayed on E. coli cells (AIDA autodisplay system), photocaged, not irradiated; experiment: flow cytometry on cells; E. coli cells displaying the nanobody (AIDA autodisplay system), not irradiated, mixed with a dilution series of fluorescent sfGFP-ALFA-tag (3)
# [2] = target: sfGFP-ALFA-tag (3); experiment: MST; 10 nM sfGFP-ALFA-tag (3) with a dilution series of photobody 1, before light activation
# [3] = target: T1, sfGFP-ALFA-tag (3); experiment: flow cytometry on cells; E. coli cells displaying the ALFA-Pb irradiated in 100 uL PBS (OD600=1; 365 nm, 530 mW; 5 cm distance), then different concentrations of sfGFP-ALFA-tag (3) added; settings: one partner purified
# [4] = target: T1, sfGFP-ALFA-tag (3); experiment: flow cytometry on cells; E. coli cells displaying the nanobody (AIDA autodisplay system), not irradiated, mixed with a dilution series of fluorescent sfGFP-ALFA-tag (3); settings: one partner purified
molecule,measurement,setting,value
sfGFP-ALFA-tag (3),Kd,[1],3200 nM
"ALFA-tag photobody (ALFA-Pb) 1, Tyr42ONBY, photocaged (VHH)",Kd,[2],7900 nM
"decaged ALFA-Pb displayed on E. coli cells (after irradiation at 365 nm) (VHH, Made from m2 by UV light) VHH: EVQLQESGGGLVQPGGSLRLSCTASGVTISALNAMAMGWYRQAPGERRVMVAAVSERGNAMYRESVQGRFTVTRDFTNKMVSLQMDNLKPEDTAVYYCHVLEDRVDSFHDYWGQGTQVTVSS",Kd,[3],0.183 ± 0.006 nM
"ALFA-Nb (wild type) displayed on E. coli cells, unirradiated control (VHH, ALFA-tag nanobody (ALFA-Nb), wild type; also called unirradiated ALFA-Nb control; ALFA-tag nanobody) VHH: EVQLQESGGGLVQPGGSLRLSCTASGVTISALNAMAMGWYRQAPGERRVMVAAVSERGNAMYRESVQGRFTVTRDFTNKMVSLQMDNLKPEDTAVYYCHVLEDRVDSFHDYWGQGTQVTVSS",Kd,[4],0.346 ± 0.005 nM
